Laboratory results reported in IntAct's records for PubMed 31515488.

B1: E3 ubiquitin-protein ligase CCNB1IP1 (Homo sapiens), Q9NPC3 (parent)
chain: MSLCEDMLLCNYRKCRIKLSGYAWVTACSHIFCDQHGSGEFSRSPAICPACNSTLSGKLDIVRTELSPSEEYKAMVLAGLRPEIVLDISSRALAFWTYQVHQERLYQEYNFSKAEGHLKQMEKIYTQQIQSKDVELTSMKGEVTSMKKVLEEYKKKFSDISEKLMERNRQYQKLQGLYDSLRLRNITIANHEGTLEPSMIAQSGVLGFPLGNNSKFPLDNTPVRNRGDGDGDFQFRPFFAGSPTAPEPSNSFFSFVSPSRELEQQQVSSRAFKVKRI
partner: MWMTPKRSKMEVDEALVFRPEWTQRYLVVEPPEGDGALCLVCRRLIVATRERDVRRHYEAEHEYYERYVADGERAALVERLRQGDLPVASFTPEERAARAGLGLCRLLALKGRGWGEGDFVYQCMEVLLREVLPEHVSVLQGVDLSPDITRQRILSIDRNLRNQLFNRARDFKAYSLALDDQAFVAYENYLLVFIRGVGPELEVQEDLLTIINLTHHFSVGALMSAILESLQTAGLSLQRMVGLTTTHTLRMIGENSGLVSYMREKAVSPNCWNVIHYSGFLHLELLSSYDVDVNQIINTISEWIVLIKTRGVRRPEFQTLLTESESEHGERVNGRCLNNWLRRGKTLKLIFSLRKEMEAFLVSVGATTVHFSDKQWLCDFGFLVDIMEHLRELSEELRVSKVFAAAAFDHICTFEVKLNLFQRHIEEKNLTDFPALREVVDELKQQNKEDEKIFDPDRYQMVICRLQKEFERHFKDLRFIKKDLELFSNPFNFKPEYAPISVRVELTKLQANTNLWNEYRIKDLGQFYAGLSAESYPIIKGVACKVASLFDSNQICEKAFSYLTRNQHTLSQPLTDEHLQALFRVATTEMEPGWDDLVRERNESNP
B2: Programmed cell death 6-interacting protein (Homo sapiens), Q8WUM4 (parent)
chain: MATFISVQLKKTSEVDLAKPLVKFIQQTYPSGGEEQAQYCRAAEELSKLRRAAVGRPLDKHEGALETLLRYYDQICSIEPKFPFSENQICLTFTWKDAFDKGSLFGGSVKLALASLGYEKSCVLFNCAALASQIAAEQNLDNDEGLKIAAKHYQFASGAFLHIKETVLSALSREPTVDISPDTVGTLSLIMLAQAQEVFFLKATRDKMKDAIIAKLANQAADYFGDAFKQCQYKDTLPKEVFPVLAAKHCIMQANAEYHQSILAKQQKKFGEEIARLQHAAELIKTVASRYDEYVNVKDFSDKINRALAAAKKDNDFIYHDRVPDLKDLDPIGKATLVKSTPVNVPISQKFTDLFEKMVPVSVQQSLAAYNQRKADLVNRSIAQMREATTLANGVLASLNLPAAIEDVSGDTVPQSILTKSRSVIEQGGIQTVDQLIKELPELLQRNREILDESLRLLDEEEATDNDLRAKFKERWQRTPSNELYKPLRAEGTNFRTVLDKAVQADGQVKECYQSHRDTIVLLCKPEPELNAAIPSANPAKTMQGSEVVNVLKSLLSNLDEVKKEREGLENDLKSVNFDMTSKFLTALAQDGVINEEALSVTELDRVYGGLTTKVQESLKKQEGLLKNIQVSHQEFSKMKQSNNEANLREEVLKNLATAYDNFVELVANLKEGTKFYNELTEILVRFQNKCSDIVFARKTERDELLKDLQQSIAREPSAPSIPTPAYQSSPAGGHAPTPPTPAPRTMPPTKPQPPARPPPPVLPANRAPSATAPSPVGAGTAAPAPSQTPGSAPPPQAQGPPYPTYPGYPGYCQMPMPMGYNPYAYGQYNMPYPPVYHQSPGQAPYPGPQQPSYPFPQPPQQSYYPQQ
B3: Cytochrome P450 2S1 (Homo sapiens), Q96SQ9 (parent)
chain: MEATGTWALLLALALLLLLTLALSGTRARGHLPPGPTPLPLLGNLLQLRPGALYSGLMRLSKKYGPVFTIYLGPWRPVVVLVGQEAVREALGGQAEEFSGRGTVAMLEGTFDGHGVFFSNGERWRQLRKFTMLALRDLGMGKREGEELIQAEARCLVETFQGTEGRPFDPSLLLAQATSNVVCSLLFGLRFSYEDKEFQAVVRAAGGTLLGVSSQGGQTYEMFSWFLRPLPGPHKQLLHHVSTLAAFTVRQVQQHQGNLDASGPARDLVDAFLLKMAQEEQNPGTEFTNKNMLMTVIYLLFAGTMTVSTTVGYTLLLLMKYPHVQKWVREELNRELGAGQAPSLGDRTRLPYTDAVLHEAQRLLALVPMGIPRTLMRTTRFRGYTLPQGTEVFPLLGSILHDPNIFKHPEEFNPDRFLDADGRFRKHEAFLPFSLGKRVCLGEGLAKAELFLFFTTILQAFSLESPCPPDTLSLKPTVSGLFNIPPAFQLQVRPTDLHSTTQTR
partner: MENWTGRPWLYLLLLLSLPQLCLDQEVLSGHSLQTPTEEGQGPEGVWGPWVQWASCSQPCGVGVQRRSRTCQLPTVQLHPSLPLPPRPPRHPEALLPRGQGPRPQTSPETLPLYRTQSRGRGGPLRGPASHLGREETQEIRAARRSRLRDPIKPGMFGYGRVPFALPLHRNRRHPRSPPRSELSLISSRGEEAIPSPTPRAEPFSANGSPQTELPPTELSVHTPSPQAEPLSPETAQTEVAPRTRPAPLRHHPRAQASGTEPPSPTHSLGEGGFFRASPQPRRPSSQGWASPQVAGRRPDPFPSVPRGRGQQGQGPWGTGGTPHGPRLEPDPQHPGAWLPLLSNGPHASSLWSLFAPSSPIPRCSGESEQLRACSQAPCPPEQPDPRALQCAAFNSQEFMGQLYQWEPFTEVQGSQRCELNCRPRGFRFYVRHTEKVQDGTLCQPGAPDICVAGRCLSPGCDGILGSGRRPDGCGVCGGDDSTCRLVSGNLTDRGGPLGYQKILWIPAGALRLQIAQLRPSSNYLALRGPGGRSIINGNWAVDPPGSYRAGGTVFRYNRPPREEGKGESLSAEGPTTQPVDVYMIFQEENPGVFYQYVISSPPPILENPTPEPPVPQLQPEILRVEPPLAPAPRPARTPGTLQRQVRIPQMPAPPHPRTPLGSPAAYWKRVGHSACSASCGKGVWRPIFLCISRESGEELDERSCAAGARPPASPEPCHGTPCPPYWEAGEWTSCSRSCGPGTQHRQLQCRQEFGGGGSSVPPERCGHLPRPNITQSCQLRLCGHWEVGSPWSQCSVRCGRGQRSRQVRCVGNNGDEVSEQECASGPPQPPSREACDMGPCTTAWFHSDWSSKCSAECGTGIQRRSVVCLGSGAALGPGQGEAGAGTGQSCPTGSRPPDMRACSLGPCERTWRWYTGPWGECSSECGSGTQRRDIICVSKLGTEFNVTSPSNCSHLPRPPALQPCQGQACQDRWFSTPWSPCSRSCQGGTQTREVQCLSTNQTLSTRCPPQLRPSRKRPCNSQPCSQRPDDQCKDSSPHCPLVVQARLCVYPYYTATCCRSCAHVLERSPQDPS

Variants of: B1
Conditions: with epmip_human EPM2AIP1, Q7L775

Variant | effect of a mutation on the interaction
F41L | with no effect
R104H | disrupting interaction strength
Y106H | with no effect
T187A | with no effect
N212D | with no effect

Variants of: B2
Conditions: with pdcd6_human PDCD6, O75340
pdcd6_human PDCD6, O75340, sequence (O75340 whole entry): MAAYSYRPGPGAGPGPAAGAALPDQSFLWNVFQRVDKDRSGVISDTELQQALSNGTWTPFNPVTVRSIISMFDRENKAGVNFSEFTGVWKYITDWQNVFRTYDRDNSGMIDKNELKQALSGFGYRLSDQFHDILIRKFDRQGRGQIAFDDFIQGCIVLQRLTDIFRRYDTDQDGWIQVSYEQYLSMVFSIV

Variant | effect of a mutation on the interaction
A309T | with no effect
G429S | with no effect
N550S | with no effect
S730L | with no effect
G778A | with no effect

Variants of: B3
Conditions: with atl4_human ADAMTSL4, Q6UY14

Variant | effect of a mutation on the interaction
R166H | disrupting interaction strength
